Molecular target: FcRn-biotin (UniProt P55899)
Assay: ELISA

Sequence of FcRn-biotin (P55899 24-297, chain 1 of 2): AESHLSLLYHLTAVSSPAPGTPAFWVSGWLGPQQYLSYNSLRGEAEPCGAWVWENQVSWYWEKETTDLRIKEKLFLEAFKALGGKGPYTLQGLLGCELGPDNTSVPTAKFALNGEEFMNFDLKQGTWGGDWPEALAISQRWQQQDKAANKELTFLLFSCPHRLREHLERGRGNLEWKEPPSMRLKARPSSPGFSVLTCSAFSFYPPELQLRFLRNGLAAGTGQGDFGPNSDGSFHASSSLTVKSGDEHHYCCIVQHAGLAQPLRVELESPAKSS
Sequence of FcRn-biotin (main, as listed by the source, chain 2 of 2): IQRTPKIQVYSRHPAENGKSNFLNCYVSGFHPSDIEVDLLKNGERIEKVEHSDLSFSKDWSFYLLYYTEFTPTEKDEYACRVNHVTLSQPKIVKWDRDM

Substance: LC-V205C (from UniProt P01834 1-107)
- EC50: 315 nM

— patent US20210069341A1
